Laboratory results from the DeepSol protein solubility set.

Experiment: soluble on expression in E. coli; label from the status in PepcDB or PDB records

Row | Sequence | soluble on expression in E. coli
1 | MSININRQNMHKMLQYKRRCIMYINTGYLNHSHKDFKDKSRPLIVGSCGTYRLSQHPKMPTYRPRGRLDYQIIYISSGLVHFHFDNPENETIIPAGHIVLFRPKELQKYEFYGKDKTQIYWLHFTGSDVKNTLRKYGFTDNKRVFNVGTSLEYEQVFKRIITELQRCQDNYEEMLMLLLRHLLIIFNRKITTEHVIRNEFLDSQMDTAITYFNTNYNRSINVEEYASSIGMSISWFIRSFRKYTGNTPVQFLTALRMTNAQVLLETTSYSINEIAGIVGYNNPLYFSRLFHKQKGCSPSEYRARNT | not soluble
2 | MSKDFIINEQIRAREVRLIDQNGDQLGIKSKQEALEIAARRNLDLVLVAPNAKPPVCRIMDYGKFRFEQQKKEKEARK | soluble
3 | MSKEKYSFEDLIKVMEELRKKCPWDREQTHESLKKYLIEEAYEVLDAIDSKDDEKLKEELGDLLLQVVFHSQIAKERGAFDINDVIDTLVKKLIERHPHVFGCANPEDVLKNWEKKKMEKRKSIFEGIPKHLPALMRSQKLQDRTSQVGFDFQDISQVFEKIQEEINELKESLEKGDRENIKHEIGDILTAVVELARFVNVDAEEALQEANERFIRRFSYIEKKAKEEGRKLEDMSLEEMDKLWMEAKKLEEQGKLS | soluble
4 | MSKFGGATAKVIKGALKVRQTRAALTLTNEAVSRIRVLLAQQNDANALKIGVRQKGCNGLTYTLEYAKDKQKFDEEVEQDGIKVWIEPKAQLSLLGSEMDYVTDKLSSEFVFRNPNIKGTCGCGESFSI | not soluble
5 | MSKKIVLALGGNALGDDLAGQMKAVKITSQAIVDLIAQGHEVIVTHGNGPQVGMINQAFEAAAKTEAHSPMLPMSVCVALSQGYIGYDLQNALREELLSRGINKPVATLVTQVEVDANDPAFLNPTKPIGSFFTEQEAEQLTKQGYTLKEDAGRGYRRVVASPKPVDIIEKETVKALVDAGQVVITVGGGGIPVIREGNHLRGASAVIDKDWASARLAEMIDADMLIILTAVEKVAINFGKENEQWLDRLSLSDAERFIEEGHFAKGSMLPKVEAAASFARSRAGREALITVLSKAKEGIEGKTGTVICQ | not soluble
6 | MSKKLLIKTWGCQMNEYDSSKMADLLNAANGYELTEEPEEADVLLLNTCSIREKAQEKVFHQLGRWKTLKDKKPGVVIGVGGCVATQEGDHIRERAPYVDVIFGPQTLHRLPEMIKQSQTDDAPVMDISFPEIEKFDRLPEPRAEGATAFVSILEHHHHHH | not soluble
7 | MSKKPVALIILDGFALRDETYGNAVAQANKPNFDRYWNEYPHTTLKACGEAVGLPEGQMGNAEVGHLNIGAGRIVYQSLTRINIAIREGEFDRNETFLAAMNHVKQHGTSLHLFGLLSDGGVHSHIHHLYALLRLAAKEGVKRVYIHGFLDGRDVGPQTAPQYIKELQEKIKEYGVGEIATLSGRYYSMDRDKRWDRVEKAYRAMVYGEGPTYRDPLECIEDSYKHGIYDEFVLPSVIVREDGRPVATIQDNDAIIFYNFRPDRAIQISNTFTNEDFREFDRGPKHPKHLFFVCLTHFSETVAGYVAFKPTNLDNTIGEVLSQHGLRQLRIAETEKYPHVTFFMSGGREEEFPGEDRILINSPKVPTYDLKPEMSAYEVTDALLKEIEADKYDAIILNYANPDMVGHSGKLEPTIKAVEAVDECLGKVVDAILAKGGIAIITADHGNADEVLTPDGKPQTAHTTNPVPVIVTKKGIKLRDGGILGDLAPTMLDLLGLPQPKEMTGKSLIVK | soluble
8 | MSKLFSEYKLKDVTLKNRIVMSPMCMYSVENKDGIATDFHFAHYVSRAAGGTGLVILEATAVQEVGRISEFDLGLWNDEQVPALKKLVGGLHYHGAKAGIQLAHAGRKAVLPGEIVAPSAIAFDEKSDKPVELTKEAIKEVVADFKRAAYRAKEAGFDVIEIHAAHGYLIHQFLSPITNRREDNYGGPAGNRYKILSDIIKAVKEVWDGPIIVRVSATDYAHGGLQLEDHIPFAKWMKADGVELIDVSTGGLVNVAPPVFPGYQVPFADEIRRGAGIATGALGLITRGEQAEEILCNERADLIIVGRELLRNPYFAKDAAKQLGETIEAPKQYSRAWK | not soluble
9 | MSKLLLKTPCTTWTFDSLMACVFGIKVSDVKVYFDILKNGPSKINDIAERINRDRSTVQRAVQNLMNAGLVKRKQVNIKDGGYYYVYEAIPFEETKKIIKKTMEEWCNNMKKWVEELEFEDVVKEYLENIEE | not soluble
10 | MSKLQQILTYLESEKLDVAVVSDPVTINYLTGFYSDPHERQMFLFVLADQEPLLFVPALEVERASSTVSFPVVGYVDSENPWQKIKHALPQLDFKRVAVEFDNLILTKYHGLKTVFETAEFDNLTPRIQRMRLIK | soluble
11 | MSKNDTEKILLDDLLFLQRAPYYESFSVYKIDSNKYIENENDSHIDRWLSMAVSGDDKTEAPTEFVIEPGGCLISLVVDRRLISLY | not soluble
12 | MSKNRDPLLANLNAFKSKVKSAPVIAPAKVGQKKTNDTVITIDGNTRKRTASERAQENTLNSAKNPVLVDIKKEAGSNSSNAISLDDDDDDEDFGSSPSKKVRPGSIAAAALQANQTDISKSHDSSKLLWATEYIQKKGKPVLVNELLDYLSMKKDDKVIELLKKLDRIEFDPKKGTFKYLSTYDVHSPSELLKLLRSQVTFKGISCKDLKDGWPQCDETINQLEEDSKILVLRTKKDKTPRYVWYNSGGNLKCIDEEFVKMWENVQLPQFAELPRKLQDLGLKPASVDPATIKRQTKRVEVKKKRQRKGKITNTHMTGILKDYSHRV | soluble
13 | MSKPSTPAPASADQNGDSATRQTAQTTETPASLLSAVGNGAPNMAGFTLNRDMVPFFPYQLQNPMLQPPQNSLENAIVHSLGTLAAQSSMFGQLCEKMLKAQEEARADQRSIREEHRAEREKADERSQQNMDKMMALVHSLVERVDRSHASSYDVVGQKNPSSSSLKPAKRVKSAVVRQSNLAKRTGAPVDAAKELKKIRDEENRNHGRSAERDNVFIGAVLVGKGSQYDKDLEKFKSFRCRTCNEVSQTKEQLVDHFSNNHAGELGARRSLRIKQTSC | not soluble
14 | MSKQDLLLEIGLEEMPARFLNESMVQLGDKLTGWLKEKNITHGEVKLFNTPRRLAVFVKDVAEKQDDIKEEAKGPAKKIALDADGNWTKAAIGFSKGQGANVEDLYIKEVKGIEYVFVQKFQAGQETKSLLPELSGLITSLHFPKNMRWGNEDLRYIRPIKWIVALFGQDVIPFSITNVESGRTTQGHRFLGHEVSIESPSAYEEQLKGQHVIADPSVRKQMIQSQLETMAAENNWSIPVDEDLLDEVNHLVEYPTALYGSFESEFLSIPEEVLVTTMKEHQRYFPVKDKNGDLLPHFITVRNGNSHAIENVARGNEKVLRARLSDASFFYKEDQKLNIDANVKKLENIVFHEELGSLADKVRRVTSIAEKLAVRLQADEDTLKHVKRAAEISKFDLVTHMIYEFPELQGIMGEKYARMLGEDEAVAAAVNEHYMPRSAGGETPSTFTGAVVAMADKLDTIASFFSIGVIPTGSQDPYGLPRQASGIVAILLDRNWGISFEELLTFVQTDKENELLDFFTQRLKYVLNAEQIRHDVIDAVLESSELEPYSALHKAQVLEQKLGAPGFKETAEALGRVISISKKGVRGDIQPDLFENEYEAKLFDAYQTAKENLQENFSKKDYEAALASLAALKEPIDAYFDHTMVIADNESLKANRLAQMVSLADEIKSFANMNALI | not soluble
15 | MSKQENIISHNTDSSLLNTVMQQMKERIINEGDKPHVTVETQLKILQELSQFGFGQFLIKNQGINGYWTHYMLTHPWFGRKTGLNNSREPLSNMECFLLDKAPTMLATQQRFELFLQENQKALVNGATLASIPCGMLGELLYLDFNGINNIQLMGIDYDQAALEDANALAKERNLDRFTTLVCRNAWELNIQEEFDLISSNGLNIYEPDDNKVLDLYQQFHTALKKGGKLVTSFLTPPPHLSSQCEWIFNKINPEDLLLQRIIFSDILNAKFQCYRSSQQTQKQLALAGFKNIHFLYDEAHLFPTVIAEK | not soluble
